We go through 4 substances from article PMC10502012.

For assay [1], the target named is chicken PHT1 (purified, wild type) (chicken). As to the kind of experiment: thermal shift (nanoDSF); concentration-dependent thermal shift of PHT1 with dipeptides; KD fitted by a modified Hall's method.
Assay [2] has the same target. Kind of assay: thermal shift (nanoDSF); TASL peptide titration: PHT1 with eleven 2-fold peptide dilutions from 100 µM; gel filtration buffer with 5% DMSO; KD fitted by a modified Hall's method.

As for Arginine-Phenylalanine dipeptide, the Kd in assay [1] worked out at 73 µM.
Take Lysine-Valine dipeptide: the Kd in assay [1] came to 63 µM.
On to “TASL peptide with a length of 14 residues”, for which, in assay [2], the Kd came to 0.4 µM.
On the same count and under the same terms, as for TASL_(1-13) peptide, the figure is 0.36 µM.
